Test results published in patent US20240148829A1.

Legend:
human IgE (human) [1] = molecular target: human IgE (human) (UniProt P01854); test: ELISA-based potency on human IgE; GI-301 100 mg/mL, 250 mM proline, histidine/HCl pH 6.7, 0.1 w/v % Tween 80 and 20 mg/mL methionine; after light stress (7.5 hours, 750 W/m^2); n=2
human IgE (human) [2] = molecular target: human IgE (human) (UniProt P01854); test: ELISA-based potency on human IgE; GI-301 100 mg/mL, 250 mM proline, histidine/HCl pH 6.7, 0.1 w/v % Tween 80 and 20 mg/mL methionine; after 35° C., 200 rpm, 14 days; n=2
human IgE (human) [3] = molecular target: human IgE (human) (UniProt P01854); test: ELISA-based potency on human IgE; GI-301 100 mg/mL, 250 mM proline, histidine/HCl pH 6.7, no additive; after 35° C., 200 rpm, 5 days; n=2
human IgE (human) [4] = molecular target: human IgE (human) (UniProt P01854); test: ELISA relative potency; GI-301 dialyzed into 10 mM His/HCl pH 6.7, 250 mM mannitol
human IgE (human) [5] = molecular target: human IgE (human) (UniProt P01854); test: ELISA relative potency; GI-301 dialyzed into 10 mM His/HCl pH 6.7, 250 mM proline
human IgE (human) [6] = molecular target: human IgE (human) (UniProt P01854); test: ELISA-based potency on human IgE; GI-301 100 mg/mL, 250 mM proline, histidine/HCl pH 6.7, 20 mg/mL methionine; after light stress (7.5 hours, 750 W/m^2); n=2
human IgE (human) [7] = molecular target: human IgE (human) (UniProt P01854); test: ELISA-based potency on human IgE; GI-301 100 mg/mL, 250 mM proline, histidine/HCl pH 6.7, 20 mg/mL methionine; after 35° C., 200 rpm, 5 days; n=2
human IgE (human) [8] = molecular target: human IgE (human) (UniProt P01854); test: ELISA-based potency on human IgE; GI-301 100 mg/mL, 250 mM proline, histidine/HCl pH 6.7, 0.1 w/v % Tween 80; after 35° C., 200 rpm, 5 days; n=2
human IgE (human) [9] = molecular target: human IgE (human) (UniProt P01854); test: ELISA relative potency; GI-301 dialyzed into 10 mM Tris/HCl pH 7.4, 250 mM mannitol
human IgE (human) [10] = molecular target: human IgE (human) (UniProt P01854); test: ELISA-based potency on human IgE; GI-301 100 mg/mL, 250 mM proline, histidine/HCl pH 6.7, 0.1 w/v % Tween 80; after light stress (7.5 hours, 750 W/m^2); n=2
human IgE (human) [11] = molecular target: human IgE (human) (UniProt P01854); test: ELISA-based potency on human IgE; GI-301 100 mg/mL, 250 mM proline, histidine/HCl pH 6.7, no additive; after 35° C., 200 rpm, 14 days; n=2
human IgE (human) [12] = molecular target: human IgE (human) (UniProt P01854); test: ELISA-based potency on human IgE; GI-301 100 mg/mL, 250 mM proline, histidine/HCl pH 6.7, 0.1 w/v % Tween 80 and 20 mg/mL methionine; after 35° C., 200 rpm, 5 days; n=2
human IgE (human) [13] = molecular target: human IgE (human) (UniProt P01854); test: ELISA-based potency on human IgE; GI-301 100 mg/mL, 250 mM proline, histidine/HCl pH 6.7, 20 mg/mL methionine; after 35° C., 200 rpm, 14 days; n=2
human IgE (human) [14] = molecular target: human IgE (human) (UniProt P01854); test: ELISA relative potency; GI-301 dialyzed into 10 mM Tris/HCl pH 7.4, 250 mM proline
human IgE (human) [15] = molecular target: human IgE (human) (UniProt P01854); test: ELISA relative potency; GI-301 dialyzed into 10 mM His/HCl pH 6.7, 250 mM trehalose
human IgE (human) [16] = molecular target: human IgE (human) (UniProt P01854); test: ELISA-based potency on human IgE; GI-301 100 mg/mL, 250 mM proline, histidine/HCl pH 6.7, no additive; after light stress (7.5 hours, 750 W/m^2); n=2
human IgE (human) [17] = molecular target: human IgE (human) (UniProt P01854); test: ELISA-based potency on human IgE; GI-301 100 mg/mL, 250 mM proline, histidine/HCl pH 6.7, 0.1 w/v % Tween 80; after 35° C., 200 rpm, 14 days; n=2

Sequence of UniProt P01854 (P01854 other isoform, or with tags, fused parts or gaps): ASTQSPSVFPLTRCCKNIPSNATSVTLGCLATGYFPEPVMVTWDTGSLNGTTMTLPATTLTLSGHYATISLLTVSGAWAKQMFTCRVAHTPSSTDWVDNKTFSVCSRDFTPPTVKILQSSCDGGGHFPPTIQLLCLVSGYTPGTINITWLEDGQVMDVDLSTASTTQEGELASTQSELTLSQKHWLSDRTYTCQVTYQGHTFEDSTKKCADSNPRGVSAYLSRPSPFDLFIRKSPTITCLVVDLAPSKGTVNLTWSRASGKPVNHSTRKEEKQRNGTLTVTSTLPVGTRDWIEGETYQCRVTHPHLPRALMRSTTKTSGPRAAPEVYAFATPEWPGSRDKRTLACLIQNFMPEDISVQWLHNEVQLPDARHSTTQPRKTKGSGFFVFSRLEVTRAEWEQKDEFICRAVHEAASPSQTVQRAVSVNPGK

relative potency by ELISA (human IgE (human) [1]): 111% | relative potency by ELISA (human IgE (human) [2]): 111% | relative potency by ELISA (human IgE (human) [3]): 79.7% | potency ELISA [%] (relative potency) (human IgE (human) [4]): 98% | potency ELISA [%] (relative potency) (human IgE (human) [5]): 101% | relative potency by ELISA (human IgE (human) [6]): 112% | relative potency by ELISA (human IgE (human) [7]): 113% | relative potency by ELISA (human IgE (human) [8]): 92.1% | potency ELISA [%] (relative potency) (human IgE (human) [9]): 92% | relative potency by ELISA (human IgE (human) [10]): 110% | relative potency by ELISA (human IgE (human) [11]): 105% | relative potency by ELISA (human IgE (human) [12]): 94.3% | relative potency by ELISA (human IgE (human) [13]): 74.2% | potency ELISA [%] (relative potency) (human IgE (human) [14]): 106% | potency ELISA [%] (relative potency) (human IgE (human) [15]): 103% | relative potency by ELISA (human IgE (human) [16]): 110% | relative potency by ELISA (human IgE (human) [17]): 80.4%
B1: GI-301 (fusion protein dimer comprising FcεRIα ECD and modified Fc region) (Fc fusion, not shown: small tags and cut ends)
chain: VPQKPKVSLNPPWNRIFKGENVTLTCNGNNFFEVSSTKWFHNGSLSEETNSSLNIVNAKFEDSGEYKCQHQQVNESEPVYLEVFSDWLLLQASAEVVMEGQPLFLRCHGWRNWDVYKVIYYKDGEALKYWYENHNISITNATVEDSGTYYCTGKVWQLDYESEPLNITVIKAPREKYWLQSHTQPLGVFLFPPKPKDTLMISRTPEVTCVVVDVSQEDPEVQFNWYVDGVEVHNAKTKPREEQFNSTYRVVSVLTVLHQDWLNGKEYKCKVSNKGLPSSIEKTISKAKGQPREPQVYTLPPSQEEMTKNQVSLTCLVKGFYPSDIAVEWESNGQPENNYKTTPPVLDSDGSFFLYSRLTVDKSRWQEGNVFSCSVMHEALHNHYTQKSLSLSLGK
